Laboratory results from paper doi:10.1101/2022.08.19.504472.

What was measured:
[1] = target: FITC-labeled RLAAK peptide; experiment: fluorescence polarisation
[2] = target: FITC-labeled RDAAK peptide; experiment: fluorescence polarisation

| Substance | Kd [1] | Kd [2] |
| --- | --- | --- |
| His-MBP-OsPRT6-UBR 136H+161V double mutant (domain or fragment) | 709 µM |  |
| His-MBP-OsPRT6-UBR wild type (domain or fragment) | 25.8 µM | 137 µM |
| His-MBP-OsPRT6-UBR 161V mutant (domain or fragment) | 41.4 µM |  |
| His-MBP-OsPRT6-UBR 136H mutant (domain or fragment) | 58.9 µM |  |
